In patent publication US20250051409A1, “MODULATORS OF PHOSPHATIDYLSERlNE DECARBOXYLASE AND USE THEREOF” (THE NATIONAL INSTITUTE FOR BIOTECHNOLOGY IN THE NEGEV LTD., priority 2021, published 2025) one finds inhibition of PSD activity (DSB-3 method), EC50 (read off the curve) and Kd data, which are given here for two molecules.

Ends that are not written are not given here.

Assay [1] addresses T1, Purified recombinant protein (full length) of human phosphatidylserine decarboxylase (PSD), with N-terminal His tag, expressed in E. coli (Acris-OriGene) (human).
T1 sequence (chain, fluorescently labelled in the MST assay with the peptides): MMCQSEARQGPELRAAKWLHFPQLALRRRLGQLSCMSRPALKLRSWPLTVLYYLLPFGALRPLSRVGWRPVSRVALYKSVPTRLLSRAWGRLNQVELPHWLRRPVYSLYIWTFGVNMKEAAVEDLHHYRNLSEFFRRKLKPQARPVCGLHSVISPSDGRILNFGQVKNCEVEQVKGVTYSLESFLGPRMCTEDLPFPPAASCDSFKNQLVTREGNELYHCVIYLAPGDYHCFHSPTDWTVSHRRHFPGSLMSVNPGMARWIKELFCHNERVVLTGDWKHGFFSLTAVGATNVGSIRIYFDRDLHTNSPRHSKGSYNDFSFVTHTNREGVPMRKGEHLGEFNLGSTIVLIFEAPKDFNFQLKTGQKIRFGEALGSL
In words: cell-based or functional assay.

Assay [2] shares this target. In words: MST, fluorescently labelled purified PSD 0.25 µM, peptide titrated 1-10 µM.
The target is the same in assay [3]. In words: microscale thermophoresis; fluorescently labelled PSD (0.25 µM) with peptide (1-10 µM). (MST reads how a fluorescent partner responds to local heating, with and without ligand.)

B1: peptide 2F3, derived from MAML2 (peptide)
peptide: ALSTSSPIPSVPQSQAQPQTGSGAS
Regarding B1, in assay [1], the inhibition of PSD activity (DSB-3 method) turned out to be 1 µM. Moreover, the half-maximal effective concentration (EC50 (read off the curve)) (usually the concentration giving half of the maximal effect) in assay [2] was 3000 nM. For the same molecule, in assay [3], the Kd (in general, the free concentration of one partner at which half of the binding sites on the other are occupied at equilibrium, for simple one-to-one binding) came out at 3000 nM.

B2: peptide 1C11, derived from HTRA2 (peptide)
peptide: ALLTSGTSDPRARVTYGTPSLWARL
modifications: not fully specified
Consider B2, for which the inhibition of PSD activity (DSB-3 method) in assay [1] worked out at 1 µM. Further, in assay [2], the half-maximal effective concentration (EC50 (read off the curve)) is 4000 nM. The Kd in assay [3] stood at 3000 nM.
